Measurements: patent US20090298167A1 (Pfizer, published 2009)
Where two headings read alike, the source gives them in different places.

T1: human gamma common chain expressed on CHO cells (human, UniProt P31785 23-369)
T1 construct: whole, on cells; Control protein; also called human IL-2R-γ common subunit; human gamma (γ) common chain
T1 sequence (looked up): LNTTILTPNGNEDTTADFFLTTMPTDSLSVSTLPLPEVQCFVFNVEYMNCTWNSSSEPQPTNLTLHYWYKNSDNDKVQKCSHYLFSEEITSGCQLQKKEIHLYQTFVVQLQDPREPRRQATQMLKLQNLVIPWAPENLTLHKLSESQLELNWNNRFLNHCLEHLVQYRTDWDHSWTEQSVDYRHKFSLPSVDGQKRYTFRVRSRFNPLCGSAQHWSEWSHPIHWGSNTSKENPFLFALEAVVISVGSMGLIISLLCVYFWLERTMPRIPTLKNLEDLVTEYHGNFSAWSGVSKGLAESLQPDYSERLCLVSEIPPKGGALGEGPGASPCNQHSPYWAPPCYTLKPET

T2: human IL-2Rβ (human, UniProt P14784 27-239)
T2 construct: Bought
T2 sequence (looked up): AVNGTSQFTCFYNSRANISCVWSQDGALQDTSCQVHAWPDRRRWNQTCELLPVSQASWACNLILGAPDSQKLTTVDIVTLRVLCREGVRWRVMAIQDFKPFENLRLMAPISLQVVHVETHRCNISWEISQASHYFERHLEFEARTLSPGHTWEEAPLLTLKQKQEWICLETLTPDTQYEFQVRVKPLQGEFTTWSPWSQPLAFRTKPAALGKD


Assays:
murine IL-21 = murine IL-21 (murine, UniProt Q9ES17 18-146); assay: cell-based or functional assay
[1] = target: T3, human IL-21R expressed on cells (human, UniProt Q9HBE5 20-538); assay: cell ELISA: CHO cells transiently expressing the receptor, antibody in conditioned medium, HRP anti-human IgG, A450
T3 construct: Transfected BaF3, TF1 and CHO cells; also native on primary human B and CD4+ T cells; also called hIL-21R; human IL-21R-BaF3 cells
T3 sequence (Q9HBE5 20-538 limits assumed): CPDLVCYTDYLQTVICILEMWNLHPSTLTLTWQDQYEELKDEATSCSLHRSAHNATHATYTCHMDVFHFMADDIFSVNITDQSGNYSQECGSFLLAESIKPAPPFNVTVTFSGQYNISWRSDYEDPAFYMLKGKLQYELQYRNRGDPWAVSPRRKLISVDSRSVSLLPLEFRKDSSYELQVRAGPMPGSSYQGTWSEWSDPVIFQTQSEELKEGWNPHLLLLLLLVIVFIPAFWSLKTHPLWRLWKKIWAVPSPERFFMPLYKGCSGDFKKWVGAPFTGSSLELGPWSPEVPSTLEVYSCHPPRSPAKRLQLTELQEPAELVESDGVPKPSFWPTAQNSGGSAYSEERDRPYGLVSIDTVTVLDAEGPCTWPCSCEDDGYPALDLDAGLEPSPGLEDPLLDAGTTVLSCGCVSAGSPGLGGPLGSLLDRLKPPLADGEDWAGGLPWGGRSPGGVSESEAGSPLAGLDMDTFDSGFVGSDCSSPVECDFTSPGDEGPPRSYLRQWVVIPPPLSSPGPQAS
Description: (§1) FIG. 6 depicts the binding of 21 anti-IL-21R IgGs to CHO cells transiently expressing human IL-21R (FIGS. 6a-c), rat IL-21R (FIGS. 6d-f), cynomolgus monkey IL-21R (FIGS. 6g-i), and human gamma common chain (FIGS. 6j-l). CHO cells were transiently transfected with IL-21R or the control gamma common chain, and binding was detected with HRP-conjugated anti-human IgG in a cell-based ELISA.
(§2) A subset of binding proteins was tested for binding to rat, cynomolgus monkey, human IL-21R, or human IL-2R-γ common subunit expressed transiently on the surfaces of CHO-PA-Dukx cells. Cells were transfected 48 hr prior to the assay. On the day of the assay, cells were washed gently 5× in PBS containing 0.9 mM CaCl₂ and 0.45 mM MgCl₂ (PBS/CaMg) on an automated plate washer (Titertek, Huntsville, Ala.), and blocked for 1 hr at RT in PBS/CaMg/5% nonfat dry milk. Conditioned media from transiently expressed anti-IL-21R IgGs were serially diluted in blocking buffer and added to the cells in the blocked plates for 1 hr at RT. Cells were washed 5× with PBS/CaMg and then incubated with horseradish peroxidase-conjugated anti-human IgG for 1 hr at RT. Cells were then washed 10× in PBS/CaMg and all of the wash buffer was removed. Cells were incubated with 100 μl TMB until the color reaction reached saturation, stopped with 100 μl of 0.18 M H₂SO₄, and read at A450 on a Perkin Elmer ENVISION™ plate reader.

[2] = target: T3, human IL-21R expressed on cells; assay: cell ELISA on transfected CHO cells, 13 nM IgG
Description: as §2

[3] = target: T4, rat IL-21R expressed on cells (rat); assay: cell ELISA on transfected CHO cells, 13 nM IgG
T4 construct: whole, on cells; Transiently transfected CHO-PA-Dukx cells
Description: as §2

[4] = target: T5, cynomolgus monkey IL-21R expressed on CHO cells (cynomolgus monkey); assay: cell ELISA on transfected CHO cells, 13 nM IgG
T5 construct: whole, on cells
Description: as §2

[5] = target: T3, human IL-21R expressed on cells; assay: cell-based or functional assay
[6] = target: T6, murine IL-21R expressed on cells (murine, UniProt Q9JHX3 20-529); assay: cell-based or functional assay
T6 sequence (Q9JHX3 20-529 limits assumed): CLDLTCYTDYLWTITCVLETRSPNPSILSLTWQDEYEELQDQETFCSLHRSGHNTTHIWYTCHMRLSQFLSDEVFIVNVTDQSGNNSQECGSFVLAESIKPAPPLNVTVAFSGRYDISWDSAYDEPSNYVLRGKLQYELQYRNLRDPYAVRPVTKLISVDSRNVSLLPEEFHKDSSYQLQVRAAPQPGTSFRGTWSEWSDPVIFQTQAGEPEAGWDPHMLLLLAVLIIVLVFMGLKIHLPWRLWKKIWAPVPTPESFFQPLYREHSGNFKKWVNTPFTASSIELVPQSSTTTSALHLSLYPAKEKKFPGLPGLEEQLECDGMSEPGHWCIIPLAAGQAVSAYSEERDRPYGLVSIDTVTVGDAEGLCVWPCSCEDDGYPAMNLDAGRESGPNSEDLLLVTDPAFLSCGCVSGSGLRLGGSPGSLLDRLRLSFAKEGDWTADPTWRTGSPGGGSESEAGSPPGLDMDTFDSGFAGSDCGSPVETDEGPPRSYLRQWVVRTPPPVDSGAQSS

[7] = target: T1, human gamma common chain expressed on …; assay: cell ELISA on transfected CHO cells, 13 nM IgG
Description: as §2

human IL-13-His/FLAG = target: T7, human IL-13-His/FLAG (human, UniProt P35225 35-146, limits assumed); assay: BIACORE: antibody captured on anti-human IgG, 50 nM analyte injected
T7 construct: Unrelated His/FLAG-tagged control; also called human IL-13-H/F
T7 sequence (P35225 35-146 limits assumed): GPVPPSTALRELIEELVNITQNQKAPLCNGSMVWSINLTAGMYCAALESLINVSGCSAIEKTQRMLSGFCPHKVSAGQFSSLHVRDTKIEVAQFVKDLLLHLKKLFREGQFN
Description: (§3) The specificity of binding of a subset of transiently expressed anti-IL-21R binding proteins (here antibodies) was tested on a BIACORE™ 2000 surface plasmon resonance instrument. Anti-human-IgG, anti-murine immunoglobulin antibodies, and murine IL-21R-H/F were immobilized onto a research-grade carboxymethyl-dextran chip (CM5) using standard amine coupling. The sensor chip surface was activated with EDC/NHS for 7 min at a flow rate of 20 μl/min. The first flow cell was used as reference surface to correct for bulk refractive index, matrix effects, and nonspecific binding. […] Remaining activated groups were blocked with 1.0 M ethanolamine (pH 8.0). The molecular weights of the anti-human IgG and the anti-murine IgG were both 150 kD, and the molecular weight of the IL-21R monomer was 27 kD.
(§4) Conditioned media containing anti-IL-21R antibodies and antibody controls (murine anti-human IL-2Rβ and murine anti-human IL-4R(R&D Systems, Minneapolis, Minn.); human anti-human IL-13 (Wyeth, Cambridge, Mass.)) were diluted in HBS/EP buffer supplemented with 0.2% bovine serum and injected onto all four flow cells of the BIACORE™ chip, capturing 500-700 (RU) of antibody on the species-appropriate capture antibody. Following a 5 sec washing period, 50 nM solutions of a positive control protein (murine IL-21R-H/F), two human proteins related to IL-21R (human IL-2Rβ and human sIL-4R(R&D Systems)), or an unrelated His/FLAG-tagged protein (human IL-13-H/F), were injected over the captured antibodies on the chip. The association and dissociation phases were monitored for 120 and 180 sec, respectively, followed by two 5 μl injections of glycine (pH 1.5) to regenerate a fully active capturing surface. All binding experiments were done at 25° C. in HBS/EP buffer. Blank and buffer effects were subtracted for each sensorgram using double referencing.

human soluble IL-4R = target: T8, human soluble IL-4R (human, UniProt P24394 26-231, limits assumed); assay: as above
T8 construct: soluble; also called human sIL-4R
T8 sequence (P24394 26-231 limits assumed): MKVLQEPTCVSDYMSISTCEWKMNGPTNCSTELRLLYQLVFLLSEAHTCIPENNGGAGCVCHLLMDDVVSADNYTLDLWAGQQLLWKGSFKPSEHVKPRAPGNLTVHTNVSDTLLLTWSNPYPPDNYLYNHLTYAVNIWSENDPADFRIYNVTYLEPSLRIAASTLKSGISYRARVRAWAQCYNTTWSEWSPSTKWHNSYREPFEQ
Description: as §3, §4

human IL-2Rβ = target: T2, human IL-2Rβ; assay: as above
Description: as §3, §4

[8] = target: T3, human IL-21R expressed on cells; assay: cell-based or functional assay; remark: listed apart in the source
[9] = target: T6, murine IL-21R expressed on cells; assay: cell-based or functional assay; remark: listed apart in the source
[10] = target: T5, cynomolgus monkey IL-21R expressed on …; assay: cell ELISA: CHO cells transiently expressing the receptor, antibody in conditioned medium, HRP anti-human IgG, A450
Description: as §2

[11] = target: T3, human IL-21R expressed on cells; assay: cell-based or functional assay; remark: listed apart in the source
[12] = target: T5, cynomolgus monkey IL-21R expressed on …; assay: cell ELISA: CHO cells transiently expressing the receptor, antibody in conditioned medium, HRP anti-human IgG, A450; remark: listed apart in the source
Description: as §1, §2

[13] = target: T4, rat IL-21R expressed on cells; assay: cell-based or functional assay

Murine IL-21R-BaF3 Neutralization IC50 (murine IL-21)	EC50 (read off the curve) [1]	A450 at 13 nM Ab in cell ELISA [2]	A450 at 13 nM Ab in cell ELISA [3]	A450 at 13 nM Ab in cell ELISA [4]	Human IL-21R-BaF3 Proliferation IC50 [5]	Human IL-21R-TF1 Proliferation IC50 [5]	Murine IL-21R-BaF3 Proliferation IC50 [6]	A450 at 13 nM Ab in cell ELISA [7]	binding result (human IL-13-His/FLAG)	binding result (human soluble IL-4R)	binding result (human IL-2Rβ)	Neutralization of T cell Proliferation IC50 (nM), human primary CD4+ T cells [8]	Neutralization of T cell Proliferation IC50 (nM), murine primary CD8+ T cells [9]	EC50 (read off the curve) [10]	Neutralization of B cell proliferation IC50 [11]	EC50 (read off the curve) [12]	IC50 (nM) experiment 1, rat T cell proliferation [13]	IC50 (nM) experiment 2, rat T cell proliferation [13]	Binder
0.04 nM	–	–	–	–	–	–	–	–	–	–	–	–	–	–	–	–	–	–	murine IL-21R-Fc (Fc fusion, not shown: a dimerising Fc or GST) not shown
–	~1 nM	1.25 A450	0.874 A450	1.38 A450	0.91 nM	2.67 nM	0.01 nM	–	–	–	–	–	–	–	–	–	–	–	AbD (antibody, human IgG1, V domains shown, Full-length human IgG1 / human lambda, transient, conditioned medium; Framework limits derived; also called VHP/VL13) VH: QVQLQESGPGLVKPSETLSLTCAVSGYSISSGYYWGWIRQPPGKGLEWIGSISHTGNTYYNPPLKSRVTISVDTSKNQFSLKLSSVTAADTAVYYCARGGGISRPEYWGQGTLVTVSS VL: SSELTQDPAVSVALGQTVRITCQGDSLRTYYASWYQQKPGQAPVLVIYGKHKRPSGIPDRFSGSSSGNTASLTITGAQAEDEADYYCVTRNRYGNPHVLFGGGTQLTVL
–	~0.3 nM	1.11 A450	1.1 A450	1.36 A450	0.52 nM	2.91 nM	0.065 nM	0.108 A450	no binding (tested: 50 nM)	no binding (tested: 50 nM)	no binding (tested: 50 nM)	0.06 nM	4.92 nM	–	–	–	–	–	AbO (antibody, human IgG1, V domains shown, Human IgG1 triple-mutant (L234A, L235A, G237A); Framework limits derived; also called VHP/VL16; VHPTM/VL16) VH: QVQLQESGPGLVKPSETLSLTCAVSGYSISSGYYWGWIRQPPGKGLEWIGSISHTGNTYYNPPLKSRVTISVDTSKNQFSLKLSSVTAADTAVYYCARGGGISRPEYWGQGTLVTVSS VL: SSELTQDPAVSVALGQTVRITCQGDSLRTYYASWYQQKPGQAPVLVIYGKHKRPSGIPDRFSGSSSGNTASLTITGAQAEDEADYYCVTRSAKGNPHVLFGGGTQLTVL
–	–	1.45 A450	1.26 A450	1.51 A450	0.68 nM	4.25 nM	0.227 nM	–	–	–	–	–	–	~0.8 nM	–	–	–	–	AbL (antibody, human IgG1, V domains shown, Full-length human IgG1 / human lambda, transient, conditioned medium; Framework limits derived; also called VH3/VL13) VH: QVQLQESGPGLVKPSETLSLTCAVSGYSISSGYYWGWIRQPPGKGLEWIGSISHTGNTYYNPPLKSRVTISVDTSKNQFSLKLSSVTAADTAVYYCARFMGFGRPEYWGQGTLVTVSS VL: SSELTQDPAVSVALGQTVRITCQGDSLRTYYASWYQQKPGQAPVLVIYGKHKRPSGIPDRFSGSSSGNTASLTITGAQAEDEADYYCVTRNRYGNPHVLFGGGTQLTVL
–	–	1.25 A450	1.16 A450	1.31 A450	0.68 nM	4.62 nM	0.153 nM	0.125 A450	no binding (tested: 50 nM)	no binding (tested: 50 nM)	no binding (tested: 50 nM)	0.08 nM	0.85 nM	~0.6 nM	0.16 nM	–	–	–	AbQ (antibody, human IgG1, V domains shown, Purified form: human IgG1 double-mutant (L234A, G237A); Framework limits derived; also called VH3/VL2; VH3DM/VL2) VH: QVQLQESGPGLVKPSETLSLTCAVSGYSISSGYYWGWIRQPPGKGLEWIGSISHTGNTYYNPPLKSRVTISVDTSKNQFSLKLSSVTAADTAVYYCARFMGFGRPEYWGQGTLVTVSS VL: SSELTQDPAVSVALGQTVRITCQGDSLRTYYASWYQQKPGQAPVLVIYGKHKRPSGIPDRFSGSSSGNTASLTITGAQAEDEADYYCVARSVVGNPHVLFGGGTQLTVL
–	–	1.29 A450	0.927 A450	1.31 A450	0.73 nM	3.13 nM	0.184 nM	0.104 A450	no binding (tested: 50 nM)	no binding (tested: 50 nM)	no binding (tested: 50 nM)	0.03 nM	1.79 nM	–	0.13 nM	~0.8 nM	173 nM	105 nM	AbU (antibody, human IgG1, V domains shown, Human IgG1 triple-mutant (L234A, L235A, G237A); Framework limits derived; also called VHP/VL25; VHPTM/VL25) VH: QVQLQESGPGLVKPSETLSLTCAVSGYSISSGYYWGWIRQPPGKGLEWIGSISHTGNTYYNPPLKSRVTISVDTSKNQFSLKLSSVTAADTAVYYCARGGGISRPEYWGQGTLVTVSS VL: SSELTQDPAVSVALGQTVRITCQGDSLRTYYASWYQQKPGQAPVLVIYGKHKRPSGIPDRFSGSSSGNTASLTITGAQAEDEADYYCTTRSNKGNPHVLFGGGTQLTVL
